Molecular target: FGF receptors
Assay: cell-based or functional assay

Row | Substance | ID50, cytotoxicity on SK-Mel-28 cells (72 h, MTT) | ID50, inhibition of proliferation of serum stimulated rabbit keratocytes (3 h) | ID50, inhibition of rabbit keratocyte proliferation (48 h) | ED50, cytotoxicity on SK-MEL-28 cells
1 | bFGF-SAP fusion protein (FGF-Ala-Met-SAP), wild type | 0.6 nM | 1 to 10 nM | 0.2 nM | 
2 | wild type bFGF-SAP chemical conjugate (heterogeneous FGF-SAP) (from UniProt P20656 25-277) | 0.3 nM | 1 to 10 nM | 0.1 nM | 8 ng/mL

— patent publication EP1188448A2
